# In US20150260731A1 (ACUMEN PHARMACEUTICALS, published 2015):
# Target: T1, amyloid β-derived diffusible ligands (ADDLs), oligomers of Aβ1-42
# T1 construct: number of chains not fixed; also called Aβ oligomers; Aβ1-42 oligomers
# Test: sandwich ELISA, 6E10 as capture and as detection antibody, Aβ oligomers titrated (log RFU axis)
binder,measurement,value
"6E10 (antibody, V domains shown) VH: EVQLQQSGAELVKPGASVKLCTASGFNIKDTYIHWVKQRPEQGLEWIGRFDPVNVNTRYDSRFRGKATITSDASSNTAYLHLNSLTSEDTAVYYCSRSYYNGRRRFTYWGQGTLVTVSA VL: DIVMTQSPSSLTVTAGEKVALTCKASQSLLSSGNQKNYLTWYQQKPGQPPKLLIYWASIRESGVPDRFTGSGSGTFFTLTISSVQAEDLAVYYCQNDYNYPFTFGSGTKLEIK",EC50 (read off the curve),~5 nM
